This is an account of results in patent US20200239586A1 (LA TROBE UNIVERSITY, published 2020).

Assay [1] has as its target phage expressed hFn14 mutant L65A (human, UniProt Q9NP84 28-77). Kind of assay: phage ELISA (Method 2): antibody coated on the plate, 10-fold dilutions of phage displaying hFn14 L65A; biotin anti-M13 antibody, streptavidin-HRP, TMB, OD 450 nm; x axis = dilution of phage. The source says:
(§1) For mutants P59A and F63A, binding was detected using HRP-conjugated anti-M13-phage polyclonal IgG and TMB substrate. For all other mutants binding was detected using Biotin-conjugated anti-M13-phage monoclonal antibody followed by HRP-conjugated Streptavidin and TMB substrate. Optical density at 450 nm was quantified using a Spectramax spectrophotometer. Error bars for each dilution represent the standard deviation of duplicate assays. FIG. 27A wild type Fn14, FIG. 27B W42A, FIG. 27C S54A, FIG. 27D A57G, FIG. 27E P59A, FIG. 27F S61A, FIG. 27G F63A, FIG. 27H L65A. In all cases error bars represent the standard deviation. X axis=dilution of phage. Methods according to Epitope mapping using phage expressed Fn14—Method 2
(§2) The wells of Maxisorp immunoplates (Nunc) were coated overnight at 4° C. with the target monoclonal antibodies or recombinant Tweak-Fc at a concentration of 1.5 μg/ml in PBS. mAb 5G8 was used as a negative control for ELISA plates coated with tested antibodies. […] 10-fold serial dilutions of phage were made using PBS solution and phage dilutions were added to the coated, blocked ELISA plates for 1 hour, shaking at room temperature. Phage was subsequently removed from the wells and the ELISA plates were washed three times with PBS/0.05% Tween 20. […]
For orientation: In an ELISA, binding on a coated surface is turned into a signal by an enzyme label.

Assay [2] concerns the target T1, His tagged hFn14 extracellular region mutant R56A (human, UniProt Q9NP84 28-77).
T1 construct: not shown: (His)6 tag
Briefly: ELISA with purified His-tagged hFn14 R56A; x axis 'Log (c)' without unit, µg/ml by the legend.

For assay [3], the target named is T2, synthetic peptide hFn14 sub-domain 2 (human, biotin on the added C-terminal lysine; disulfide bonds as in the solution structure of He et al. 2009).
T2 construct: also called sub-domain 2 peptide
T2 peptide: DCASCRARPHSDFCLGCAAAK
Kind of assay: ELISA, synthetic biotin peptide on neutravidin plate; antibody concentration not given. The source says: FIG. 21B is a graphical representation showing reactivity of anti-Fn14 mAbs CRCBT-06-001, CRCBT-06-002, CRCBT-06-003, CRCBT-06-004, CRCBT-06-005, CRCBT-06-006, CRCBT-06-007 and ITEM-1 with a synthetic peptide representing sub-domain 2 of Fn14. Plates were coated with sub-domain 2 peptide and various dilutions of antibody were allowed to bind, bound antibody was detected with anti-mouse HRP and TMB substrate. The average of duplicate readings are plotted, error bars represent standard deviations. The ELISA was repeated to ensure consistent results. The vertical line at 5 ng/ml within the linear part of the curves is the point at which a comparison of the reactivity of each mAb was analyzed.
The ELISA was performed essentially according to the manufacturer's recommended protocol (Pierce). Briefly, peptide was coated onto wells (in duplicate) at 1-10 μg/ml for 2 hours at room temperature. Wells were washed in PBS/0.05% Tween 20/0.1% BSA 3 times and dilutions of each antibody were added in wash buffer for 1 hour with gentle agitation. After another three washes anti-mouse HRP-conjugated to horse radish peroxidase (HRP; Chemicon) was added at 1/1000 dilution for 1 hour shaking. […] Optical density at 450 nm was quantified using a Spectromax absorbance spectrophotometer.

The target of assay [4] is T3, Histidine tagged hFn14 extracellular domain, bacterially expressed (human, UniProt Q9NP84 28-77).
T3 construct: also called recombinant Fn14; recombinant human Fn14; not shown: (His)6 tag from pET-15b
Briefly: SPR (ProteOn XPR36), mAb coupled to chip, His-tagged hFn14 analyte, Langmuir 1:1 fit. On the procedure: The kinetic analysis of the monoclonal antibodies was performed on a ProteOn XPR36 system (BioRad) Laboratories) essentially according to the protocol from Nahshol et al (2008). Monoclonal antibodies against hFn14 (50 μg/ml) were covalently coupled to a GMC chip. Analytes were a serial dilution of bacterially expressed and purified Histidine tagged hFn14. The binding sensorgrams were collected, processed and analyzed using the integrated ProteOn Manager software (BioRad Laboratories). Binding curves were fitted using the Langmuir model describing 1:1 binding stoichiometry.
Binding kinetics of anti-Fn14 antibodies CRCBT-06-001, CRCBT-06-002, CRCBT-06-004, ITEM-1 and ITEM-4 were assessed as described herein and results are set out in Table 4.

Assay [5] has as its target phage expressed hFn14 mutant F63A (human, UniProt Q9NP84 28-77). Kind of assay: phage ELISA (Method 2): antibody coated on the plate, 10-fold dilutions of phage displaying hFn14 F63A; HRP-conjugated anti-M13 phage polyclonal IgG, TMB, OD 450 nm; x axis = dilution of phage.
From the text: as §1, §2

In general, Kd refers to the concentration at which binding is half-saturated. High values mean a looser complex, low ones a tighter complex. In general, koff refers to the rate constant with which the complex falls apart. Read a high koff as a short-lived complex. The kon is the rate constant with which the complex forms.

T1 sequence (Q9NP84 28-77 R56A): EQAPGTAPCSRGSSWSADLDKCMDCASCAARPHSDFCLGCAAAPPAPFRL

B1: CRCBT-06-001 (antibody, IgG2b, V domains shown)
VH: QVQLQQSGGGLVQPGGSMKLSCIASGFTFSSYWMSWVRQSPEKGLEWVAEIRSKSDNYATHYAESVKGKFTISRDDSKSRFFLQMNNLRAEDTGIYYCSSTYADYFHYWGQGTDLTVSS
VL: DIVMTQTPASLAVSLGQRATISCRASQSVSTSTYSYMHWYQQKPGQPPKLLIKYASSLESGVPARFSGSGSGTDFTLNIHPVEEDDTATYYCQHSWEIPYTFGGGTKLEIKR
B1: the binding result in assay [1], in assay [2], in assay [3] and in assay [5] was “binds” in each case. For the same molecule, the Kd in assay [4] was determined as 0.55 nM. The same molecule came in with a koff in assay [4] of 0.000102 s⁻¹. This molecule gave a kon in assay [4] of 186000 M⁻¹ s⁻¹.

B2: CRCBT-06-002 (antibody, IgG1, V domains shown)
VH: EVKLQQSGGGLVQPGGSMKLSCVASGFTFSYYWMNWVRQSPEQGLEWIAEIRLQSNDYPTHYAESVKGRFTISRDDSKNSVYLQMNNLRPEDTGIYYCACRYADYFDHWGQGTTLTVSS
VL: DTVLTQSPASLVVSLGQRATISCRASQSVSTSDYSYIHWYQQKPGQPPKFLIKYASNRDSGVPARFSGSGSGTDFTLNIHPVEEDDTAIYYCQHSWEIPPTFGAGTKLELQR
For B2, the binding result in assay [1], in assay [2], in assay [3] and in assay [5] was “binds” in each case. This molecule also came in with a Kd in assay [4] of 0.198 nM. For the same molecule, the koff in assay [4] is 2.59e-05 s⁻¹. The molecule further displayed a kon in assay [4] of 131000 M⁻¹ s⁻¹.
